Measurements as given in patent publication US6872537.

Molecular target: microtubules prepared from bovine brain tubulin

B1: co-expressed baculovirus p60/p80 katanin heterodimer (both subunits with N-terminal His(6) tag) (protein)
chain 1: HHHHHHMSVDEICENTKMGREYALLGNYETSLVYYQGVLQQIQKLLTSVHEPQRKHQWQTIRQELSQEYEHVKNITKTLNGFKSEPAAPEPAPNHGRAAPFSHHQHAAKPAAAEPARDPDVWPPPTPVDHRPSPPYQRAARKDPPRRSEPSKPANRAPGNDRGGRGPSDRRGDARSGGGGRGGARGSDKDKNRGGKSDKDKKAPSGEEGDEKKFDPAGYDKDLVENLERDIVQRNPNVHWADIAGLTEAKRLLEEAVVLPLWMPDYFKGIRRPWKGVLMVGPPGTGKTMLAKAVATECGTTFFNVSSASLTSKYHGESEKLVRLLFEMARFYAPSTIFIDEIDSICSKRGTGSEHEASRRVKSELLIQMDGVSGPSAGEESSKMVMVLAATNFPWDIDEALRRRLEKRIYIPLPEIDGREQLLRINLKEVPLADDIDLKSIAEKMDGYSGADITNVCRDASMMAMRRRIQGLRPEEIRHIPKEELNQPSTPADFLLALQKVSKSVGKEDLVKYMAWMEEFGSV
chain 2: HHHHHHMATKRAWKLQELVAHSSNVNCLALGPMSGRVMVTGGEDKKVNLWAVGKQNCIISLSGHTSPVDSVKFNSSEELVVAGSQSGTMKIYDLEPAKIVRTLTGHRNSIRCMDFHPFGEFVASGSTDTNVKLWDVRRKGCIYTYKGHSDQVNMIKFSPDGKWLVTASEDTTIKLWDLTMGKLFQEFKNHTGGVTGIEFHPNEFLLASGSSDRTVQFWDLETFQLVSSTSPGASAVRSISFHPDGSYLFCSSQDMLHAFGWEPIRCFDTFSVFWGKVADTVIASTQLIGASFNATNVSVYVADLSRMSTTGIAQEPQSQPSKTPSGGAEEVPSKPLTASGRKNFVRERPHTTSSKQRQPDVKSEPERQSPTQDEGVKDDDATDIKDPDSYAKIFSPKTRVDHSPERNAQPFPAPLDVPGAQEPEPFKHPPKPAAAAAVAPVSRAPAPSASDWQPAQANPAPNRVPAATKPVPAQEVAPSRKPDPISTIIPSDRNKPANLDMDAFLPPAHAQQAPRVNAPASRKQSDSERIEGLRKGHDSMCQVLSSRHRNLDVVRAIWTAGDAKTSVESVVNMKDQAILVDILNIMLLKKSLWNLDMCVVVLPRLKELLSSKYENYVHTSCACLKLILKNFTSLFNQNIKCPPSGIDITREERYNKCSKCYSYLIATRGYVEEKQHVSGKLGSSFRELHLLLDQLE
  ATPase activity (malachite green), stimulation by microtubules: this activity was stimulated ˜10-fold by microtubules
  maximal microtubule-stimulated ATPase rate: maximal microtubule-stimulated rate of 3 ATP/katanin/sec
  microtubule concentration at peak ATPase stimulation: peak at ˜2 µM tubulin
  microtubule severing, fluorescence microscopy assay: Both p60 and p60/p80 severed microtubules in this assay

B2: baculovirus-expressed S. purpuratus katanin p60 subunit with N-terminal His(6) tag (protein)
chain: B1 chain 1
  ATPase activity (malachite green), stimulation by microtubules: p60 alone displayed a microtubule-stimulated ATPase activity
  microtubule concentration at peak ATPase stimulation: peak at ˜2 µM tubulin
  microtubule severing, fluorescence microscopy assay: Both p60 and p60/p80 severed microtubules in this assay
